Values quoted from earlier work in PMC3720600.

Target: Cys145 (UniProt position 145, PILIPCHRVVC)

O6-methylguanine-DNA methyltransferase (MGMT; O6-alkylguanine-DNA alkyltransferase, AGT) (Homo sapiens)
pKa: 4.8
